In patent US20240262922A1 (Merck KGaA, published 2024):
Where two headings read alike, the source gives them in different places.

T1: recombinant human OX40L protein (R&D Systems, cat. #1054-OX) (human, UniProt P23510 51-183)
T1 sequence: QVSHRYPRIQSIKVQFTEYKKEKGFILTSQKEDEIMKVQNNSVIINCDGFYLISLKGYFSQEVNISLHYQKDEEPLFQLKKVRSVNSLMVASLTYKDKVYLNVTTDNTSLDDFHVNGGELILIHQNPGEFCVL

T2: AVI-GST-His6-hOX40L (human, UniProt P23510 51-183)
T2 sequence: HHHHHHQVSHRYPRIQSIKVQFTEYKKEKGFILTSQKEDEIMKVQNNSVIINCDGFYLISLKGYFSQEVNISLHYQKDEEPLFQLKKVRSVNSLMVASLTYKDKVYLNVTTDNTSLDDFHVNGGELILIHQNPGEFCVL

T3: mouse OX40L (mouse, UniProt P43488 51-198, limits assumed)
T3 sequence: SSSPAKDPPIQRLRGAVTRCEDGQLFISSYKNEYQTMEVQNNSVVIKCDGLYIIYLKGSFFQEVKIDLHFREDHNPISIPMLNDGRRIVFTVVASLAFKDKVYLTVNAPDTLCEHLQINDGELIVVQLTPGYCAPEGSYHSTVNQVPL

T4: recombinant cynomolgus monkey OX40L (Novoprotein cat. #CP72) (cynomolgus monkey, UniProt P23510 51-183 (human entry), limits assumed)
T4 construct: Bought protein; also called cynomolgus OX40L
T4 chain: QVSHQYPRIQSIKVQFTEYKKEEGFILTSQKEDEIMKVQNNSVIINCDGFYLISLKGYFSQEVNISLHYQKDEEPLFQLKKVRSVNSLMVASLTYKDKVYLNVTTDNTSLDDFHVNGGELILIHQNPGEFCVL


Columns and labels:
[1] = target: T1, recombinant human OX40L protein (R&D …); test: cell-based or functional assay
AVI-GST-His6-hOX40L [2] = target: T2, AVI-GST-His6-hOX40L; test: cell-based or functional assay
mouse OX40L = target: T3, mouse OX40L; test: flow cytometry on CHO-S cells / ELISA on recombinant protein (sentence does not say which)
[3] = target: T4, recombinant cynomolgus monkey OX40L …; test: flow cytometry on CHO-S-OX40L cells / ELISA on recombinant OX40L (sentence does not say which)
[4] = target: T1, recombinant human OX40L protein (R&D …); test: SPR steady state, Biacore T200; OX40L immobilised on CM5, antibody in solution
Procedure: (§1) Recombinant OX40L proteins (human OX40L protein, R&D systems, cat. #1054-OX; cynomolgus monkey OX40L, Novoprotein cat. #CP72) were immobilized onto Biacore CM5 sensor chips and anti-OX40L antibodies were bound to this surface at a range of concentrations. The response at steady state was measured with a Biacore T200 instrument (GE Healthcare) and plotted against the concentration of antibody and fit to a 1:1 binding model. The steady state KD was determined as the antibody concentration at a response equal to half the maximal response (Rₘₐₓ).
Steady state affinity assay was performed as described in section 1.1.7 of Example 1.

[5] = target: T1, recombinant human OX40L protein (R&D …); test: cell-based or functional assay; remark: listed apart in the source
AVI-GST-His6-hOX40L [6] = target: T2, AVI-GST-His6-hOX40L; test: cell-based or functional assay; remark: listed apart in the source
[7] = target: T1, recombinant human OX40L protein (R&D …); test: SPR steady state, Biacore T200; OX40L immobilised on CM5, FcFab in solution
Procedure: as §1
As with the IgG clones, binding affinity to human OX40L was determined for all twelve FcFabs using steady state affinity assay as described in section 1.1.7 of Example 1. […]

Binder	Primary T cell activation assay IC50 [1] [µM]	OX40L neutralization/OX40-HEK Reporter IC50 (AVI-GST-His6-hOX40L [2]) [µM]	binding result (mouse OX40L)	binding result [3]	Kd [4] [µM]	Primary T cell activation assay IC50 [5] [µM]	OX40L neutralization/OX40-HEK Reporter IC50 (AVI-GST-His6-hOX40L [6]) [µM]	Kd [7] [µM]
98C01 (IgG) (antibody) heavy: not shown light: SYELTQPPSVSVALGQTARITCGGNNIENKNVHWYQQKPGQAPVLVIYRDSNRPSGIPERFSGSNSGNTATLSINRAQAGDEADYYCQVWDSNTVVFGGGTKLTVLGQPKAAPSVTLFPPSSEELQANKATLVCLISDFYPGAVTVAWKADSSPVKAGVETTTPSKQSNNKYAASSYLSLTPEQWKSHKSYSCQVTHEGSTVEKTVAPTECS	0.0129	0.0036	no binding	binds	0.0177			
30F02 (IgG) (antibody) heavy: not shown light: SYVLTQPLSVSVALGQTARITCGGNNIGDKNVHWYQQKPGQAPVLVISRDSNRPSGIPERFSGSNSGNTATLTISRAQAGDESDYYCQVWDSSTVVFGGGTKVTVLGQPKAAPSVTLFPPSSEELQANKATLVCLISDFYPGAVTVAWKADSSPVKAGVETTTPSKQSNNKYAASSYLSLTPEQWKSHKSYSCQVTHEGSTVEKTVAPTECS	0.0124	0.0727	no binding	binds	0.0539			
85F10 (IgG) (antibody) heavy: not shown light: SYELTQPLSVSVALGQTARITCGGNNIENKNVHWYQQKPGQAPVLVIKRDSNRPSGIPERLSGSNSGNTATLTISRAQAGDEADYYCQVWDSSTVVFGGGTKLTVLGQPKAAPSVTLFPPSSEELQANKATLVCLISDFYPGAVTVAWKADSSPVKAGVETTTPSKQSNNKYAASSYLSLTPEQWKSHKSYSCQVTHEGSTVEKTVAPTECS		0.0546	no binding	binds	0.0282			
68F03 (IgG) (antibody) heavy: not shown light: SFELTQPLSVSVALGQTARITCGGINIENKNVHYYQQKPGQAPVLVIYRDTNRPSGIPERFSGSNSGNTATLTISRAQAGDEADYYCQVWDSNTVIFGGGTKVTVLGQPKAAPSVTLFPPSSEELQANKATLVCLISDFYPGAVTVAWKADSSPVKAGVETTTPSKQSNNKYAASSYLSLTPEQWKSHKSYSCQVTHEGSTVEKTVAPTECS	0.0188	0.0057			0.0258			
84E11 (IgG) (antibody) heavy: not shown light: SSELTQDPAVSVALGQTVRITCQGDSLRNYFANWYQQKPGQAPVLVIYGKNNRPSGIPDRFSGSSSGNTASLTITGAQAEDEADYYCNSRDSSGYHVVFGGGTKLTVLGQPKAAPSVTLFPPSSEELQANKATLVCLISDFYPGAVTVAWKADSSPVKAGVETTTPSKQSNNKYAASSYLSLTPEQWKSHKSYSCQVTHEGSTVEKTVAPTECS	0.0088	0.0177	no binding	binds	0.0395			
98E10 (IgG) (antibody) heavy: not shown light: SYELTQPLSVSVALGQTARITCGGNNIENKNVHWYQQMPGQAPVLVIYRDSNRPSGIPERFSGSNSGNTATLTINRAQAGDEADYYCQVWDSNTVVFGGGTKVTVLGQPKAAPSVTLFPPSSEELQANKATLVCLISDFYPGAVTVAWKADSSPVKAGVETTTPSKQSNNKYAASSYLSLTPEQWKSHKSYSCQVTHEGSTVEKTVAPTECS	0.0088	0.0054	no binding	binds	0.0328			
89B09 (IgG) (antibody) heavy: not shown light: SSELTQDPAVSVALGQTVRITCQGDSVRRFFAHWYQQKPGQAPILVISGKDTRPSGIPDRFSGSISGNTASLTITGAQAEDEADYYCNSRDSSGYLVLFGGGTKLTVLGQPKAAPSVTLFPPSSEELQANKATLVCLISDFYPGAVTVAWKADSSPVKAGVETTTPSKQSNNKYAASSYLSLTPEQWKSHKSYSCQVTHEGSTVEKTVAPTECS	0.0107	0.0044	no binding	binds	0.0316			
88B06 (IgG) (antibody) heavy: not shown light: SYELTQPLSVSVALGQTARISCGGNNIGRKNVHWYQQKPGQAPVLVIYGDSNRPSGIPERFSGSNSGNTATLTIGRAQAGDEADYYCQVWDSSTVFGGGTKLTVLGQPKAAPSVTLFPPSSEELQANKATLVCLISDFYPGAVTVAWKADSSPVKAGVETTTPSKQSNNKYAASSYLSLTPEQWKSHKSYSCQVTHEGSTVEKTVAPTECS	0.0285	0.0189	no binding	binds	0.0232			
85F12 (FcFab) (antibody) chain 1: EPKSSDKTHTCPPCPAPPVAGPSVFLFPPKPKDTLMISRTPEVTCVVVDVSHEDPEVKFNWYVDGVEVHNAKTKPREEQYNSTYRVVSVLTVLHQDWLNGKEYKCAVSNKALPSSIEKTISKAKGQPREPQVYTLPPSREEMTKNQVSLTCLVKGFYPSDIAVEWESNGQPENNYKTTPPVLDSDGSFFLYSKLTVDKSRWQQGNVFSCSVMHEALHNHYTQKSLSLSPGAGGGGSGGGGSGGGGSQVQLQQSGPGLVKPSQTLSLTCAISGDSVSSNSAVWNWIRQSPSRGLEWLGRTDYRSKWNNDYAVSVKSRITINPDTSKNQFSLQLNSVTPEDTAVYYCARGDAGMASFDYWGQGTLVTVSSASTKGPSVFPLAPSSKSTSGGTAALGCLVKDYFPEPVTVSWNSGALTSGVHTFPAVLQSSGLYSLSSVVTVPSSSLGTQTYICNVNHKPSNTKVDKRVEPKSC chain 2: SSELTQPPSVSVSPGQTASITCSGDKLGDKYACWYQQKAGQSPVVVIYQDRKRPSGIPERFSGSNSGNTATLTISGTQAMDEADYYCQTWDRRTAVFGGGTKLTVLGQPKAAPSVTLFPPSSEELQANKATLVCLISDFYPGAVTVAWKADSSPVKAGVETTTPSKQSNNKYAASSYLSLTPEQWKSHKSYSCQVTHEGSTVEKTVAPTECS						> 0.161	> 0.161	0.0341
85F10 (FcFab) (antibody) chain 1: EPKSSDKTHTCPPCPAPPVAGPSVFLFPPKPKDTLMISRTPEVTCVVVDVSHEDPEVKFNWYVDGVEVHNAKTKPREEQYNSTYRVVSVLTVLHQDWLNGKEYKCAVSNKALPSSIEKTISKAKGQPREPQVYTLPPSREEMTKNQVSLTCLVKGFYPSDIAVEWESNGQPENNYKTTPPVLDSDGSFFLYSKLTVDKSRWQQGNVFSCSVMHEALHNHYTQKSLSLSPGAGGGGSGGGGSGGGGSEVQLLESGAGLLKPSETLSLTCAVYGGSFSDYYWSWIRQPPGKGLEWIGEINHSGSTNYNPSLKSRVTISVDTSKNQFSLKLSSVTAADTAVYYCARKRGANFFDDWGQGTLVTVSSASTKGPSVFPLAPSSKSTSGGTAALGCLVKDYFPEPVTVSWNSGALTSGVHTFPAVLQSSGLYSLSSVVTVPSSSLGTQTYICNVNHKPSNTKVDKRVEPKSC chain 2: SYELTQPLSVSVALGQTARITCGGNNIENKNVHWYQQKPGQAPVLVIKRDSNRPSGIPERLSGSNSGNTATLTISRAQAGDEADYYCQVWDSSTVVFGGGTKLTVLGQPKAAPSVTLFPPSSEELQANKATLVCLISDFYPGAVTVAWKADSSPVKAGVETTTPSKQSNNKYAASSYLSLTPEQWKSHKSYSCQVTHEGSTVEKTVAPTECS						0.0063	> 0.161	0.0501
85F12 (IgG) (antibody) heavy: not shown light: SSELTQPPSVSVSPGQTASITCSGDKLGDKYACWYQQKAGQSPVVVIYQDRKRPSGIPERFSGSNSGNTATLTISGTQAMDEADYYCQTWDRRTAVFGGGTKLTVLGQPKAAPSVTLFPPSSEELQANKATLVCLISDFYPGAVTVAWKADSSPVKAGVETTTPSKQSNNKYAASSYLSLTPEQWKSHKSYSCQVTHEGSTVEKTVAPTECS			no binding	binds	0.0756			
